Measured values published in patent US20140112919A1.

T1: recombinant mouse IL-10 (mouse) (UniProt P18893)
T1 sequence: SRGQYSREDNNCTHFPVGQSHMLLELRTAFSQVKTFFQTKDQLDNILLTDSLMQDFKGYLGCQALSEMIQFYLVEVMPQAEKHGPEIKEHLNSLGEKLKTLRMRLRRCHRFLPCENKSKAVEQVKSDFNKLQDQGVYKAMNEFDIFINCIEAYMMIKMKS

B1: rat anti hIL-10 mAb 12G8 (antibody, from a related filing, V domains shown)
VH: EVQLVESGGGLVRPGGSLRLSCTASGFTFSDYHMAWVRQSPDKGLEWVASITLDATYTYYRDSVRGRFTISRNNAKTTLYLQMDSLRSEDTATFYCTRHRGFSVWLDYWGQGVMVTVSS
VL: DIQMTQSPSLLSASVGDRVTLNCKTSQNIFENLAWYQQKLREPPKLLIFNASPLQAGIPSRFSGSGSGTDFTLTITSLQPEDVATYFCHQYYSGYTFGPGTKLELKR
B2: humanized anti-human IL-10 antibody SCH 708980 (12G8) (antibody, V domains shown)
VH: QVQLVESGGGVVQPGRSLRLSCAASGFTFSDYHMAWVRQAPGKGLEWVASITLDATYTYYRDSVRGRFTISRDNSKNTLYLQMNSLRAEDTAVYYCARHRGFSVWLDYWGQGTLVTVSS
VL: DIQMTQSPSSLSASVGDRVTITCKTSQNIFENLAWYQQKPGKAPKLLIYNASPLQAGVPSRFSGSGSGTDFTLTISSLQPEDFATYYCHQYYSGYTFGPGTKLELKR
B3: recombinant mouse IL-10 (ligand)
chain: T1 sequence

Key:
[1] = molecular target: recombinant human IL-10 (human) (UniProt P22301)
[2] = molecular target: recombinant human IL-10 (human) (UniProt P22301); experiment: KinExA, mean (n)
[3] = molecular target: recombinant human IL-10 (human) (UniProt P22301); experiment: Biacore, mean ± S.D. (n); format not described
[4] = molecular target: T1, recombinant mouse IL-10 (mouse); experiment: Biacore, mean ± S.D. (n); format not described
[5] = molecular target: recombinant cyno IL-10 (cyno) (UniProt P79338); experiment: Biacore, mean ± S.D. (n); format not described
Chain of recombinant cyno IL-10 (cyno) (P79338 19-178 limits assumed): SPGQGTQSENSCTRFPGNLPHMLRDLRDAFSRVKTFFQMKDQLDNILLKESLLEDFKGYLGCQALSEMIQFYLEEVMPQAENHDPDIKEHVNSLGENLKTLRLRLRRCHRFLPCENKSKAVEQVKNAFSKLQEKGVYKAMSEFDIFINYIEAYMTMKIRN

rat anti hIL-10 mAb 12G8 = experiment: competitive ECLA (IGEN): unlabeled IL-10 titrated against hIL-10-biotin for binding to rat 12G8

Row | Binder | Bioassay IC50(pM) [1] [pM] | Kd [2] [nM] | Kd [3] [nM] | Kd [4] [nM] | Kd [5] [nM] | IC50 (rat anti hIL-10 mAb 12G8) [nM]
1 | B1 | 66 | 0.023 | 0.277 | 7.4 | 0.33 | 
2 | B2 | 93 |  |  |  |  | 
3 | B3 |  |  |  |  |  | 37.9
